In test [1] the target is XENP37827 (IL18×Fab-Fc fusion with WT-4CS IL18 and a silent Fv) (human). Description: cell-based or functional assay.
Test [2] deals with XENP38865 (IL18×Fab-Fc fusion, IL18 4CS/K53A, silent Fv) (human). The test is described as follows: cell-based or functional assay.
Sequence of XENP38865 (IL18×Fab-Fc fusion, IL18 4CS/K53A, silent Fv) (human) (Q14116 other isoform, or with tags, fused parts or gaps K53A K53A): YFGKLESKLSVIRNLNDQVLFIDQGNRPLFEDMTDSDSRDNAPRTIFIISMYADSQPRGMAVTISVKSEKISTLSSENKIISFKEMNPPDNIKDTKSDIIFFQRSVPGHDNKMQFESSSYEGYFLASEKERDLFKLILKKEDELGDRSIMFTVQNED

Sequence of XENP37827 (IL18×Fab-Fc fusion with WT-4CS IL18 and a silent Fv) (human) (Q14116 other isoform, or with tags, fused parts or gaps): as the sequence (Q14116 other isoform, or with tags, fused parts or gaps K53A K53A) above, with A53K counted along it

Regarding “IL18 binding protein (IL18BP) (from UniProt O95998 31-194)”, the results for the IC50 of dose dependent inhibition of KG-1 cell activation (induction of PD-L1 expression) by IL18BP at fixed concentration (10 nM) of the IL18 fusion in test [1] and in test [2] were 5.5 nM and 88.7 nM, respectively.
